Target: Met (hepatocyte growth factor receptor) on Hep3B cells (human) (UniProt P08581)
Experiment: flow cytometry saturation binding of Alexa Fluor 647-labeled protocells (0.015 wt % MC40, about 6 peptides/particle) on cytochalasin D-treated Hep3B cells; non-specific binding measured with saturating unlabeled hepatocyte growth factor and subtracted

Sequence of UniProt P08581 (P08581 25-1390): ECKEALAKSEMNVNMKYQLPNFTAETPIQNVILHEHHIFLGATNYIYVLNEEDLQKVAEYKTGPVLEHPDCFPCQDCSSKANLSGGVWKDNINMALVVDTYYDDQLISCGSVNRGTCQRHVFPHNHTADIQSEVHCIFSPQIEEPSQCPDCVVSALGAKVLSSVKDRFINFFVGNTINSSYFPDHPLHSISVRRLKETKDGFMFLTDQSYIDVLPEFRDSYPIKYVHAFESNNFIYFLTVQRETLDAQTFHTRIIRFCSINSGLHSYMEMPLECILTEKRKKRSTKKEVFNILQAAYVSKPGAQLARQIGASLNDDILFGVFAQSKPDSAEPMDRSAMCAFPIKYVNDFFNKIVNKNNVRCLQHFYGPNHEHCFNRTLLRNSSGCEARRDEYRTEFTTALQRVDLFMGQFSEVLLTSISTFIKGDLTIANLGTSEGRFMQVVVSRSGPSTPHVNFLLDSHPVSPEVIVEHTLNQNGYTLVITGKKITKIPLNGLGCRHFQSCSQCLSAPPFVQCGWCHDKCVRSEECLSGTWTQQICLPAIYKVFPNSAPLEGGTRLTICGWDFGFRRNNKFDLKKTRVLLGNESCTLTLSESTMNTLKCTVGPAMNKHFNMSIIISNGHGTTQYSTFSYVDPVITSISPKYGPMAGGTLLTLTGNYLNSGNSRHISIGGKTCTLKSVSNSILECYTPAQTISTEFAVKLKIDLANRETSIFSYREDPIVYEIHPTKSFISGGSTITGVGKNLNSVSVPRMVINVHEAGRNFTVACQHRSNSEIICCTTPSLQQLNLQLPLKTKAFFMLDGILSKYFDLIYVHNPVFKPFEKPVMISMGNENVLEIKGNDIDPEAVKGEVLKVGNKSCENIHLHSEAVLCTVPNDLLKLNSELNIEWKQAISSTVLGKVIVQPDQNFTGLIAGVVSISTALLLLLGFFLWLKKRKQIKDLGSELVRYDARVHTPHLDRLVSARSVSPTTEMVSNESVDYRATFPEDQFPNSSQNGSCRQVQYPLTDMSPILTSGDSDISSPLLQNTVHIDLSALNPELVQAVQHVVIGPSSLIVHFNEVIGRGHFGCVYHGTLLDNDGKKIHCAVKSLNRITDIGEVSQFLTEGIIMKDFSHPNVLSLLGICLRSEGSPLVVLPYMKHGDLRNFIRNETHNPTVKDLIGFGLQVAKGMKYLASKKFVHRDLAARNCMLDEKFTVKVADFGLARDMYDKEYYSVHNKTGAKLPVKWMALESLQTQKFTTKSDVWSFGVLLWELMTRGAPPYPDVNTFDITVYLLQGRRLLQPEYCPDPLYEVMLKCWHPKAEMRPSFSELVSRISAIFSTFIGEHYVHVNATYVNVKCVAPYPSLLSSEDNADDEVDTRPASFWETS

- Kd: 1.05 nM
Substance: MC40-targeted protocells (mesoporous silica nanoparticle-supported lipid bilayer modified with 0.015 wt % MC40 targeting peptide)

Source: patent US20200197536A1
